We go through 2 molecules from article PMC3790820, “A Rapid and High-Throughput Quantitation Assay of the Nuclear Factor κB Activity Using Fluorescence Correlation Spectroscopy in the Setting of Clinical Laboratories”.

Series [1] addresses T1, NF-kB p50 (hr-p50) (human (recombinant), UniProt P19838 1-433). The series can be described thus: competition (FCS); little effect at 1 and 50 nM competitor; TAMRA probe N1; 50 mM Tris-HCl pH 7.5, 250 mM NaCl, 1 mM EDTA, 2.5 mM DTT, 10% glycerol, 1 nM TAMRA probe, 1 ug poly(dI-dC), room temperature, 10 min. Conditions: protein: commercial; chain copies: 2; hairpin, 21 bp stem, AAAA loop.

Series [2] addresses T1, NF-kB p50 (hr-p50). The series can be described thus: competition (FCS); 868.0 us at 1 nM, 495.8 us at 50 nM competitor; TAMRA probe N1; 50 mM Tris-HCl pH 7.5, 250 mM NaCl, 1 mM EDTA, 2.5 mM DTT, 10% glycerol, 1 nM TAMRA probe, 1 ug poly(dI-dC), room temperature, 10 min. Conditions: protein: commercial; chain copies: 2; hairpin, 22 bp stem, AAAA loop.

T1 sequence (P19838 1-433): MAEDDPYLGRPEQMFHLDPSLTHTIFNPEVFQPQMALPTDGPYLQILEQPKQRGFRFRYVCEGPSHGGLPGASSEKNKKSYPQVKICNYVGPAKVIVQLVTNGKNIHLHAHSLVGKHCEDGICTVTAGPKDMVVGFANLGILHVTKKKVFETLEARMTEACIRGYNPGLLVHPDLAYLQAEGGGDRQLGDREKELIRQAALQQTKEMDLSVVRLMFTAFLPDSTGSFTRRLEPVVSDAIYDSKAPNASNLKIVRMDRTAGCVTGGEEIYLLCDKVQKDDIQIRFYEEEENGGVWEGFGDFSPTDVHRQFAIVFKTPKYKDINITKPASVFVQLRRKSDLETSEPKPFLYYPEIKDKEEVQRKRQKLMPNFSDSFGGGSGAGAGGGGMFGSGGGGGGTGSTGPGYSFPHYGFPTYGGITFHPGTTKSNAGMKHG

Turning to CAGGCGCGTTTTGACCATCTTAAAAAAGATGGTCAAAACGCGCCTG (structured_DNA) [nonspecific competitor stem-loop], the binding result with NF-kB p50 (hr-p50) [1] is reported as “no binding”. With AGTTGAGGGGACTTTCCCAGGCAAAAGCCTGGGAAAGTCCCCTCAACT (structured_DNA) [wild-type competitor stem-loop], the binding result with NF-kB p50 (hr-p50) [2] is listed as “binds”.
